These results are taken from patent US20240150440A1 (LUMEN BIOSCIENCE, published 2024).

The EC50 is the concentration that produces a half-maximal response. Usually Kd stands for a measure of binding affinity in units of concentration.

Test [1] deals with SARS-COV-2 Wuhan Reference RBD (SARS-CoV-2, UniProt P0DTC2 319-541).
Test [2] addresses T1, recombinant SARS-CoV-2 RBD with C-terminal AviTag (SARS-CoV-2, UniProt P0DTC2 319-541).
For test [3], the target named is T1, recombinant SARS-CoV-2 RBD with …. This is another data set of the same source.
For test [4] the target is unchanged. In words: BLI, biotinylated RBD on streptavidin biosensors; OR: over-range.
Test [5] shares this target. In words: BLI, biotinylated RBD on streptavidin biosensors; OR: over-range [Cont. 7]. On the technique in general: Biolayer interferometry detects binding as a change in optical thickness at a sensor tip.
Test [6] shares this target. The test can be described thus: BLI, biotinylated RBD on streptavidin biosensors; OR: over-range [Cont. 6].

Where two headings read alike, the source gives them in different places.

B1: PP788 (VHH, not shown: large carriers; small tags and cut ends)
VHH: QVQLVESGGGLVQPGGSLRLSCAASGSIESINAIHWFRQAPGKAREEVAAITENDVDYYADSVKGRFTISRDNAKNTVYLQMNSLKPEDTAVYYCASLSSGYQYVGFRYWGQGTQVTVSS
In test [1], B1 gave an EC50 of 1.56 nM.

B2: MBP-5HVZ-R5d-E1-H6 (VHH, not shown: large carriers; small tags and cut ends)
VHH: QVQLVESGGGLVQPGGSLRLSCAASGSSFSINWMHWFRQAPGKQREGVASINSTGSDYYADSVKGRFTISRDNAKNTVYLQMNSLKPEDTAVYYCAAAITQPMPQGKGAPPGFYYWGQGTQVTVSS
Regarding B2, the Kd in test [2] was determined as 7.98 nM.

B3: R5A-B7 (competition ELISA sample) (VHH)
VHH: QVQLVESGGGLVQPGGSLRLSCAASGAFFSYGAIHWFRQAPGKQREEVAAITSGGSTGYADSVKGRFTISRDNAKNTVYLQMNSLKPEDTAVYYCNAGVVWLPSNAAYNLWGQGTQVTVSS
As for B3, the Kd in test [3] came to 13.1 nM.

B4: PP806 MBP-R2B-E6-H6 (VHH)
VHH: QVQLVESGGGLVQPGGSLRLSCAASGGVTRGNAMAWYRQAPGKQREIVAAIDNGGSHAYGDSVKGRFTISRDNAKNTVYLQMNSLKPEDTAVYYCAVFPDHDSEQASIDRVYWGQGTQVTVSS
notes: Form: Monomer
Consider B4, for which the Kd in test [4] is ~1400 nM.

B5: PP888 MBP-S1b-E11-H6 (VHH)
VHH: QVQLVESGGGLVQPGGSLRLSCAASGSYASIASMHWFRQAPGKEREFVAGVTSGGSTNYGDSVKGRFTISRDNAKNTVYLQMNSLKPEDTAVYYCNALAGANYESQWEEYNYWGQGTQVTVSS
notes: Form: Monomer
As to B5, the equilibrium dissociation constant (Kd) in test [5] is ~5290 nM.

B6: PP887 MBP-S1b-E7-H6 (VHH)
VHH: QVQLVESGGGLVQPGGSLRLSCAASGGEFSDNGLHWFRQAPGKQREFVATASSDGSTQYRDSVKGRFTISRDNAKNTVYLQMNSLKPEDTAVYYCTALLMSSAGEYDVWGQGTQVTVSS
notes: Form: Monomer
As to B6, the Kd in test [6] is ~6570 nM.
